These results are taken from patent publication US20170369595A1 (Hoffmann-La Roche, published 2017).

In the test the target is T1, CD33 (UniProt P20138 18-364, limits assumed).
T1 construct: whole, on cells; Endogenous antigen on Molm13 cells; also called cell surface antigen CD33; CD33-expressing Molm13 cells
The test is described as follows: FACS on CD33-expressing Molm13 cells, Dig-Cy5 as payload. The method, then: Simultaneous antigen binding of the antibodies generated in example 1 was analyzed by FACS analysis on LeY-expressing MCF7 cells, CD33-expressing Molm13 cells and GPC3-expressing HepG2 cells using Dig-Cy5 as payload to address hapten binding.

T1 sequence (P20138 18-364 limits assumed): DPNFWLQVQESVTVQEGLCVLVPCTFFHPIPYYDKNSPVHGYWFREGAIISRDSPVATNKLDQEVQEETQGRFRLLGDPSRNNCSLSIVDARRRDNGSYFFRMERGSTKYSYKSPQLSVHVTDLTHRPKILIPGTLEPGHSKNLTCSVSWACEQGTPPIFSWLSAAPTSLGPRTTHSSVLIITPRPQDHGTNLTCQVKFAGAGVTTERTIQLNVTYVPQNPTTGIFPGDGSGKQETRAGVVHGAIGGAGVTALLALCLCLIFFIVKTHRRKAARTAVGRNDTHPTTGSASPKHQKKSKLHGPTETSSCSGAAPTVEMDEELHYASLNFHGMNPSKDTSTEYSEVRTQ

B1: BsAb CD33-Dig(SS)-CD33 (bispecific antibody)
light: DIQLTQSPSTLSASVGDRVTITCRASESLDNYGIRFLTWFQQKPGKAPKLLMYAASNQGSGVPSRFSGSGSGTEFTLTISSLQPDDFATYYCQQTKEVPWSFGQGTKVEVKRTVAAPSVFIFPPSDEQLKSGTASVVCLLNNFYPREAKVQWKVDNALQSGNSQESVTEQDSKDSTYSLSSTLTLSKADYEKHKVYACEVTHQGLSSPVTKSFNRGEC
heavy 1: EVQLVQSGAEVKKPGSSVKVSCKASGYTITDSNIHWVRQAPGQSLEWIGYIYPYNGGTDYNQKFKNRATLTVDNPTNTAYMELSSLRSEDTAFYYCVNGNPWLAYWGQGTLVTVSSASTKGPSVFPLAPSSKSTSGGTAALGCLVKDYFPEPVTVSWNSGALTSGVHTFPAVLQSSGLYSLSSVVTVPSSSLGTQTYICNVNHKPSNTKVDKKVEPKSCGGGGSGGGGSGGGGSGGGGSQVQLVESGGGLVKPGGSLRLSCAASGFTFSDYAMSWIRQAPGKCLEWVSSINIGATYIYYADSVKGRFTISRDNAKNSLYLQMNSLRAEDTAVYYCARPGSPYEYDKAYYSMAYWGQGTTVTVSSGQPREPQVYTLPPCRDELTKNQVSLWCLVKGFYPSDIAVEWESNGQPENNYKTTPPVLDSDGSFFLYSKLTVDKSRWQQGNVFSCSVMHEALHNHYTQKSLSLSPGK
heavy 2: EVQLVQSGAEVKKPGSSVKVSCKASGYTITDSNIHWVRQAPGQSLEWIGYIYPYNGGTDYNQKFKNRATLTVDNPTNTAYMELSSLRSEDTAFYYCVNGNPWLAYWGQGTLVTVSSASTKGPSVFPLAPSSKSTSGGTAALGCLVKDYFPEPVTVSWNSGALTSGVHTFPAVLQSSGLYSLSSVVTVPSSSLGTQTYICNVNHKPSNTKVDKKVEPKSCGGGGSGGGGSGGGGSGGGGSDIQMTQSPSSLSASVGDRVTITCRASQDIKNYLNWYQQKPGKAPKLLIYYSSTLLSGVPSRFSGSGSGTDFTLTISSLQPEDFATYYCQQSITLPPTFGCGTKVEIKGQPREPQVCTLPPSRDELTKNQVSLSCAVKGFYPSDIAVEWESNGQPENNYKTTPPVLDSDGSFFLVSKLTVDKSRWQQGNVFSCSVMHEALHNHYTQKSLSLSPGK
notes: Trivalent, bispecific; no CH2; (Gly4Ser)4 connectors; In the FACS assay it carried Dig-Cy5 as payload
B1: the binding result is reported as “binds”.

B2: BsAb Dig-CD33-Dig (bispecific antibody)
light: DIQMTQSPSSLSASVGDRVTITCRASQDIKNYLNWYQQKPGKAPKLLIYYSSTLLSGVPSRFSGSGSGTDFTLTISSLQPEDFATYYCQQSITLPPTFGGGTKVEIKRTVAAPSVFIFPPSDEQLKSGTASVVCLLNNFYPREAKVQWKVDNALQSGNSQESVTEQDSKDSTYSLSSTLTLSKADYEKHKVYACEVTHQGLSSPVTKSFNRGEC
heavy 1: QVQLVESGGGLVKPGGSLRLSCAASGFTFSDYAMSWIRQAPGKGLEWVSSINIGATYIYYADSVKGRFTISRDNAKNSLYLQMNSLRAEDTAVYYCARPGSPYEYDKAYYSMAYWGQGTTVTVSSASTKGPSVFPLAPSSKSTSGGTAALGCLVKDYFPEPVTVSWNSGALTSGVHTFPAVLQSSGLYSLSSVVTVPSSSLGTQTYICNVNHKPSNTKVDKKVEPKSCGGGGSGGGGSGGGGSGGGGSEVQLVQSGAEVKKPGSSVKVSCKASGYTITDSNIHWVRQAPGQSLEWIGYIYPYNGGTDYNQKFKNRATLTVDNPTNTAYMELSSLRSEDTAFYYCVNGNPWLAYWGQGTLVTVSSGQPREPQVYTLPPCRDELTKNQVSLWCLVKGFYPSDIAVEWESNGQPENNYKTTPPVLDSDGSFFLYSKLTVDKSRWQQGNVFSCSVMHEALHNHYTQKSLSLSPGK
heavy 2: QVQLVESGGGLVKPGGSLRLSCAASGFTFSDYAMSWIRQAPGKGLEWVSSINIGATYIYYADSVKGRFTISRDNAKNSLYLQMNSLRAEDTAVYYCARPGSPYEYDKAYYSMAYWGQGTTVTVSSASTKGPSVFPLAPSSKSTSGGTAALGCLVKDYFPEPVTVSWNSGALTSGVHTFPAVLQSSGLYSLSSVVTVPSSSLGTQTYICNVNHKPSNTKVDKKVEPKSCGGGGSGGGGSGGGGSGGGGSDIQLTQSPSTLSASVGDRVTITCRASESLDNYGIRFLTWFQQKPGKAPKLLMYAASNQGSGVPSRFSGSGSGTEFTLTISSLQPDDFATYYCQQTKEVPWSFGQGTKVEVKGQPREPQVCTLPPSRDELTKNQVSLSCAVKGFYPSDIAVEWESNGQPENNYKTTPPVLDSDGSFFLVSKLTVDKSRWQQGNVFSCSVMHEALHNHYTQKSLSLSPGK
notes: as for B1
Regarding B2, the binding result is given as “binds”.
